Target: T1, orphanin FQ receptor (rat, UniProt P35370 1-367)
T1 chain: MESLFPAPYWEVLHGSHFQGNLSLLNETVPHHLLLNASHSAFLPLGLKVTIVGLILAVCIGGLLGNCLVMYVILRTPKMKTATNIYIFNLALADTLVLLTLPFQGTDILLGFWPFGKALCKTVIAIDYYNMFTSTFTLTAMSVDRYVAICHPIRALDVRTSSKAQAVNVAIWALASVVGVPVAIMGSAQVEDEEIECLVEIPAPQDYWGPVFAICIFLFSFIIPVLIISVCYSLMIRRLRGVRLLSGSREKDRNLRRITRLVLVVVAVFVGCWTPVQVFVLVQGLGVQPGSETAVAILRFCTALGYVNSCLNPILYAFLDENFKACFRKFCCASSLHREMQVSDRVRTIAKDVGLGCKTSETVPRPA
Experiment: cell-based or functional assay

For FGGFTGARKSARKYANQ [Y14-orphanin FQ], the “EC50, cAMP inhibition assay” value was 1 nM.

— patent publication US20010010919A1 (published 2001)
